Numbering of substitutions follows the chain as printed.
Tests used:
[1] = molecular target: T1, EcmrR (full length) (Escherichia coli, UniProt A0A8I3B051); type: binding; conditions: second site (site II) in CTD; TPSb+ in site I; 8 mM CHAPSO added before grid preparation; density of the sterol head, relevance of the site left open by the authors
T1 construct: E. coli BL21 Star (DE3); codon-optimised gene; homodimer on promoter DNA with E. coli RNAP-sigma70

[2] = molecular target: T2, EcmrR CTD (Escherichia coli, UniProt A0A8I3B051); experiment: X-ray crystal structure, […] Å; type: binding; conditions: sites I and II both occupied; detergent of the crystallisation solution, 5 mM
T2 construct: E. coli BL21 Star (DE3)

[3] = molecular target: EcmrR (multidrug-sensing MerR family transcriptional regulator of Escherichia coli), full length, wild type (Escherichia coli); experiment: cryo-EM structure
[4] = molecular target: T3, EcmrR (UniProt PDB:6XLK_3 1-268); experiment: cryo-EM (focused map of spacer DNA subcomplex within RPo); TPSb+, CHAPSO; RNAP present in the particle; Complex assembly: core RNAP:σ70:EcmrR-promoter 1:1.4:2, 5 mM MgCl2, 5 mM TPSb+ Br-, 23 °C 3 h, then (initial transcribing complexes) rNTPs 37 °C 10 min; SEC purified; DNA in 20 mM Tris-HCl pH 7.5, 100 mM KCl, 1 mM TCEP; final SEC buffer not given; conditions: protein: recombinant; tags: expressed as N-terminal His6-Smt3 fusion; chain copies: 2; pre-melted bubble from non-complementary strand segments, blunt ends
T3 sequence: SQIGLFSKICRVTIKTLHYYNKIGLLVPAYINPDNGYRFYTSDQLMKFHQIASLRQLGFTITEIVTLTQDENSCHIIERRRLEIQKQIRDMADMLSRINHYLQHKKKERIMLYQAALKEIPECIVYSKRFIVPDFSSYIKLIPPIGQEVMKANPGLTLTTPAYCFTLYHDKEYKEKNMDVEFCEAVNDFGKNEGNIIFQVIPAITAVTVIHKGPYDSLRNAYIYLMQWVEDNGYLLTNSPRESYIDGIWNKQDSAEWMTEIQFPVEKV

[5] = molecular target: T3, EcmrR; experiment: cryo-EM (focused map of spacer DNA subcomplex within RPitc-4nt); TPSb+, CHAPSO; RNAP present in the particle; Complex assembly: core RNAP:σ70:EcmrR-promoter 1:1.4:2, 5 mM MgCl2, 5 mM TPSb+ Br-, 23 °C 3 h, then (initial transcribing complexes) rNTPs 37 °C 10 min; SEC purified; DNA in 20 mM Tris-HCl pH 7.5, 100 mM KCl, 1 mM TCEP; final SEC buffer not given; conditions: protein: recombinant; tags: expressed as N-terminal His6-Smt3 fusion; chain copies: 2; blunt

Q: Which “cryo-EM structure of the complex” value [1] does the source give for `C[C@H](CCC(=O)NCCC[N+](C)(C)CC(O)CS(=O)(=O)[O-])[C@H]1CC[C@H]2[C@@H]3[C@H](O)C[C@@H]4C[C@H](O)CC[C@]4(C)[C@H]3C[C@H](O)[C@]12C` (some centres unmarked) [CHAPSO, 3-([3-cholamidopropyl]dimethylammonio)-2-hydroxy-1-propanesulfonate] here?
A: The density likely corresponds to the tetracyclic sterol head of CHAPSO

Q: `CCCCCCCCCCCCCCCC[N+](C)(C)C` [CTA^+] was tested. Which “X-ray crystal structure, 1.4 Å” value [2] did it give?
A: wherein both sites are occupied by cetyltrimethylammonium cation (CTA^+)

Q: With “EcmrR (multidrug-sensing MerR family transcriptional regulator of Escherichia coli), full length, wild type (natural protein)” as the molecule, how does the stoichiometry N [3] read?
A: 2

B1: 54-bp heteroduplex promoter scaffold, 19-bp spacer (NT strand DNA-1 / T strand DNA-1) (dsDNA)
DNA 1: GCCTTGACCCTCCCCTAAGGGGAGGGTTTAGATTGTGTGCAGTCTGACGCGGCG
DNA 2: CGCCGCGTCAGACTCGTAGGAATCTAAACCCTCCCCTTAGGGGAGGGTCAAGGC
Q: Does B1 bind [4]?
A: binds

B2: 54-bp fully complementary promoter scaffold, 19-bp spacer (NT strand DNA-1 / T strand DNA-2) (dsDNA)
DNA 1: B1 DNA 1
DNA 2: B1 DNA 2 with C15G, G16C, T17A, A18C, G19A, G20C
Q: Does B2 bind [5]?
A: binds

Reference: paper PMC8113463, “Structural visualization of transcription activated by a multidrug-sensing MerR family regulator” (Nature Communications, 2021)
